Drawing on patent US20080132681A1, this text covers pSTAT1 EC50 (THP-1 cells) for one substance.

Values joined by “and” are separate entries in the source; they are usually repeats but may differ in a detail not shown here. Identical values can stand only once.

In the assay the target is IFNα receptor 2 (IFNAR2) on THP-1 cells (human) (UniProt P48551). Put plainly: cell-based or functional assay.
Chain of UniProt P48551 (P48551 27-515): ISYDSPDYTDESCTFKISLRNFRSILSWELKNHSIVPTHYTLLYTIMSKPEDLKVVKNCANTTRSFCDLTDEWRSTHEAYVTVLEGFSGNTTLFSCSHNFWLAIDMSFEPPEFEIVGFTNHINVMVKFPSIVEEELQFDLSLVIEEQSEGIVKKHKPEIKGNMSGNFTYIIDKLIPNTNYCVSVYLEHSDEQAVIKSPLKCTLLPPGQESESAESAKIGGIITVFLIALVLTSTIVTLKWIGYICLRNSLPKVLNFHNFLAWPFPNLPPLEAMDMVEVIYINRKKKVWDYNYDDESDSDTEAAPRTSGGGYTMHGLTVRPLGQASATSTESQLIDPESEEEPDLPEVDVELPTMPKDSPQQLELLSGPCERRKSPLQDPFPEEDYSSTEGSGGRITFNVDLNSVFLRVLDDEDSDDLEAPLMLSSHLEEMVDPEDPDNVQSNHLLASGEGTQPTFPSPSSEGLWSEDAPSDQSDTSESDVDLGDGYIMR

On to “6HisC1G/C98 IFNα-2a + limitin loop (from UniProt P01563 25-188) (ligand)”, for which the pSTAT1 EC50 (THP-1 cells) was 30 pM and 34.8 pM.
